In the assay the target is fluorescein-labeled UBE2D2 (WT) (human), P62837. Description: fluorescence polarisation. As to conditions: remark: other sources report otherwise. Background: In fluorescence polarisation assays a small probe gives low polarisation when free and higher when bound to something large.

Among the data in PMC2764551 are Kd values, retold here.

fluorescein-labeled UBE2D2 (WT) (human), P62837, sequence (P62837 whole entry): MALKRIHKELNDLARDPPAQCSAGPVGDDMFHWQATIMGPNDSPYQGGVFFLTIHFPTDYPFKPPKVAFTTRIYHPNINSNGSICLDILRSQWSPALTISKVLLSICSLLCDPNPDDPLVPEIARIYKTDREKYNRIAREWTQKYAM

B1: IpaH1.4 C-terminal domain, residues 265-575, A0A0H2USG1 265-575 (domain or fragment)
chain: GPQIFFSMGNSATISAPEHSLADAVTAWFPENKQSDVSQIWHAFEHEEHANTFSAFLDRLSDTVSARNTSGFREQVAAWLEKLSASAELRQQSFAVAADATESCEDRVALTWNNLRKTLLVHQASEGLFDNDTGALLSLGREMFRLEILEDIARDKVRTLHFVDEIEVYLAFQTMLAEKLQLSTAVKEMRFYGVSGVTANDLRTAEAMVRSREENEFTDWFSLWGPWHAVLKRTEADRWAQAEEQKYEMLENEYSQRVADRLKASGLSGDADAEREAGAQVMRETEQQIYRQLTDEVLALRLSENGSNHIA
What is called Kd is a measure of binding affinity in units of concentration. B1 had a Kd of 317 µM.
